Changes are numbered by the printed parent chain.
T1: ScCsoR (Streptomyces coelicolor M145) (UniProt Q9RD62)
T1 sequence: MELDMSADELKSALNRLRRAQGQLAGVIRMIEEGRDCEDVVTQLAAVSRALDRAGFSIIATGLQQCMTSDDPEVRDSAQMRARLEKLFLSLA

T2: ScCsoR-C66S C67S (Streptomyces coelicolor M145), ORF:9a82776c
T2 sequence: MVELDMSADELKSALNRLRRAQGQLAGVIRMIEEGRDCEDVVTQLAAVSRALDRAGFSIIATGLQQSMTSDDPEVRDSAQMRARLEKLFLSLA

T3: ScCsoR-C37S-C66S C38S;C67S (Streptomyces coelicolor M145), ORF:9a82776c
T3 sequence: T2 sequence with C38S

T4: ScCsoR-C37S C38S (Streptomyces coelicolor M145), ORF:9a82776c
T4 sequence: T2 sequence with C38S, S67C

T5: ScCsoR (Streptomyces coelicolor M145, UniProt Q9RD62 1-92)
T5 sequence: T1 sequence

B1: Scpdo 79-bp probe (bsI, bsII) (dsDNA)
DNA 1: CCTGGGTATATCTGTTACGGTGGCCGGAAGAGATACCCCAGGGGGTAATTCCGGAAGGAGAGCGTGCCGTGTTCTTTGT
DNA 2: ACAAAGAACACGGCACGCTCTCCTTCCGGAATTACCCCCTGGGGTATCTCTTCCGGCCACCGTAACAGATATACCCAGG
B2: hrdB 79-bp competitor DNA (dsDNA)
DNA 1: CATTCCCAAGCCGGTGGTCGGCCCCTGTCCGCCGTGGACGGGGCCGGAAGCCGTTTTTCAACGTTCCGAGAGGTTGTTC
DNA 2: GAACAACCTCTCGGAACGTTGAAAAACGGCTTCCGGCCCCGTCCACGGCGGACAGGGGCCGACCACCGGCTTGGGAATG

Assays:
[1] = biological target: T1, ScCsoR (Streptomyces coelicolor M145); test: EMSA; details: 20 mM Tris-HCl pH 8.0, 2 mM EDTA, 20 mM KCl, 0.5 mM DTT (or 1-3 mM HSnH), 4% Ficoll-400, 1 nM probe, 25 C, 15 min
[2] = tested on: T2, ScCsoR-C66S C67S (Streptomyces coelicolor M145), ORF:9a82776c; test: EMSA; details: 20 mM Tris-HCl pH 8.0, 2 mM EDTA, 20 mM KCl, 0.5 mM DTT (or 1-3 mM HSnH), 4% Ficoll-400, 1 nM probe, 25 C, 15 min
[3] = tested on: T3, ScCsoR-C37S-C66S C38S;C67S (Streptomyces coelicolor M145), ORF:9a82776c; test: EMSA; details: 20 mM Tris-HCl pH 8.0, 2 mM EDTA, 20 mM KCl, 0.5 mM DTT (or 1-3 mM HSnH), 4% Ficoll-400, 1 nM probe, 25 C, 15 min
[4] = tested on: T4, ScCsoR-C37S C38S (Streptomyces coelicolor M145), ORF:9a82776c; test: EMSA; details: 20 mM Tris-HCl pH 8.0, 2 mM EDTA, 20 mM KCl, 0.5 mM DTT (or 1-3 mM HSnH), 4% Ficoll-400, 1 nM probe, 25 C, 15 min
ScCsoR [5] = biological target: T5, ScCsoR; test: EMSA; DTT; also with 50-fold competitor DNA; 20 mM Tris-HCl pH 8.0, 2 mM EDTA, 20 mM KCl, 0.5 mM DTT (or 1-3 mM HSnH), 4% Ficoll-400, 1 nM probe, 25 C, 15 min; details: protein: recombinant; tags: N-terminal His-tag (pET15b); chain copies: 4; label: 5'-biotin on strand 1; blunt
ScCsoR [6] = biological target: T5, ScCsoR; test: competition EMSA; 50-fold excess over 79-bp probe; 20 mM Tris-HCl pH 8.0, 2 mM EDTA, 20 mM KCl, 0.5 mM DTT (or 1-3 mM HSnH), 4% Ficoll-400, 1 nM probe, 25 C, 15 min; details: protein: recombinant; tags: N-terminal His-tag (pET15b); chain copies: 4; blunt

Row | Molecule | binding [1] | other results
1 | ACGGCGCGGGGGCGGCGTGAGCAGACGACGAGCACACCCTCTCAATACCCCCCTGGGTATATCTGTTACGGTGGCCGGAAGAGATACCCCAGGGGGTAATTCCGGAAGGA (double strand) [Scpdo promoter f2] | binds | –
2 | AGGACGTCGACAAAGAACACGGCACGCTCTCCTTCCGGAATTACCCCCTGGGGTATCTCTTCCGGCCACCGTAACAGATATACCCAGGGGGGTATTGAGAGGGTGTGC (double strand) [Scpdo promoter f3] | binds | –
3 | CGACGACGGTGAACTCGGCCAGGCGGGCCGCCGCCTGCCCGGTGGTCAGTGCGGTGGCGGTTGCTGCGGGGGTGTTCACGGAGCGAGACCTTTCTCGTTGTTCGTCCCCCCGCGCGGTAGGATACCCGCGGGGGTATGTGGGGTTCGGTGAGGTATCGGGTGGAGGAGAGGGAGAAGCGTGGAGCTCGACATGTCGGCCGACGAACTGAAGTCGGCGCTGAACCGGCTGCGGCGCGCCCAGGGGCAGCTCGCGGGAGTCAT (double strand) [SccsoR-Scrhod intergenic region 261 bp] | binds | –
4 | CGGTGACCTTCTCCGCCCCGTGTTCGGCGGCGAGGCGCACCGCGGCCTCGGCCAGAGCGGCACGTGTGGCCCGCTTCTTCCGCTCCCGCAGACCGCCCCCCGCGGCACCCTTCTCCGACATAAGTTGCATGGTATGCAAAGATGCATGACATGCAAAATTGGCGGGCGCCGACCCCGGAAGGGGATCGGCGCCCGCCGTCGTCGGTGCGGCTCAGGCGGCCAGTCGGGCCAGCGTCTCCTCG (double strand) [sco0622 promoter 242 bp] | no binding | –
5 | GCCAGATAGCTGCGGTTGCCCAGTGACTCGGTCTCCAGGACGTCGACAAAGAACACGGCACGCTCTCCTTCCGGAATTACCCCCTGGGGTATCTCTTCCGGCCACCGT (double strand) [Scpdo promoter f4] | no binding | –
6 | GCCAGATAGCTGCGGTTGCCCAGTGACTCGGTCTCCAGGACGTCGACAAAGAACACGGCACGCTCTCCTTCCGGAATTACCCCCTGGGGTATCTCTTCCGGCCACCGTAACAGATATACCCAGGGGGGTATTGAGAGGGTGTGCTCGTCGTCTGCTCACGCCGCCCCCGCGCCGTCGCGGGCCGAGTGCGCCGCCGCTGCGCGCCTGTGCCGCGAGACCCGGGCAACTCCGGTGTACGACGCCGAAGTTGGGGTAC (double strand) [Scpdo promoter 256 bp] | binds | binding [2]: binds; binding [3]: binds; binding [4]: binds
7 | TCTGCTCACGCCGCCCCCGCGCCGTCGCGGGCCGAGTGCGCCGCCGCTGCGCGCCTGTGCCGCGAGACCCGGGCAACTCCGGTGTACGACGCCGAAGTTGGGGTAC (double strand) [Scpdo promoter f1] | no binding | –
8 | B1 | – | binding result (ScCsoR [5]): binds
9 | B2 | – | binding result (ScCsoR [6]): no binding
